These results are taken from paper PMC3784511.

The series has as its target T1, NF-kB p50 homodimer (UniProt P19838).
T1 sequence: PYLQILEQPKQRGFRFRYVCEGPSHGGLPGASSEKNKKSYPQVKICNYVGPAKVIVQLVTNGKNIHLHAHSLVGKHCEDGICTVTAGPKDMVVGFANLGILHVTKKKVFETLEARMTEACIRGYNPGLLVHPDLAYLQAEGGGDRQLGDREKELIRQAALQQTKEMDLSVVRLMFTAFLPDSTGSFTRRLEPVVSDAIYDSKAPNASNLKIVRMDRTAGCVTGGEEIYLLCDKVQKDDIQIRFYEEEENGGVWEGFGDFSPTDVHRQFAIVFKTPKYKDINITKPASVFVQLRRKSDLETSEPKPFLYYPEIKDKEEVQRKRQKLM
Briefly: UV laser footprinting. To be noted: 10 mM Tris pH 7.4, 75 mM NaCl, 1 mM EDTA, 1 mM DTT, 100 ug/ml BSA, 0.01% NP40 (omitted in dilution experiments), 5% glycerol, 37 C; naked DNA supplemented with ….

In the case of “GCTCGGAATTCTATCCGACTGGCACCGGCAAGGTCGCTGTTCAATACATGCACAGGATGTATATATCTGACACGTGCCTGGAGACTAGGTAGTAATTCTCTTGGCGGTTAAAACGCGGTGTACAGCGCGTACGTGCGTTTAAGCGGTGCTAGAGCTTGCTACGACCAATTGAGCGGCCTCGGCACGGGGATTCCCCAGGTCGGCCGCGTATAGTGTCCATCACATAAGTGATGAACTCGGTCTTAAGAATCATGC (double strand) [601_D7 DNA (255 bp)]”, the Kd – broadly, the concentration at which binding is half-saturated – was 0.014 µM.
